Measured values: paper doi:10.1101/2021.05.25.445586
Like-named read-outs stand apart in the source and are kept apart here.

Tests used:
[1] = biological target: mouse WT-RELN (Reelin), full-length (mouse) (UniProt Q60841); assay: non-reducing SDS-PAGE with immunoblot
[2] = biological target: mouse WT-RELN (Reelin), full-length (mouse) (UniProt Q60841); assay: non-reducing SDS-PAGE with immunoblot; remark: listed apart in the source

Substance: mouse WT-RELN (Reelin), full-length, Q60841 27-3461
- stoichiometry N [1]: 2
- stoichiometry N [2]: 2
